Results published in US6498233 (dated 1996).

Molecular target: p185 erbB-2 on SK-BR-3 human breast carcinoma cells (human, UniProt P04626 23-1255)

B1: scFv(FRP5)-DETA-DGAL4 protein (scFv)
chain: DYKDDDDKLHHHHHHKLQVQLQQSGPELKKPGETVKISCKASGYPFTNYGMNWVKQAPGQGLKWMGWINTSTGESTFADDFKGRFDFSLETSANTAYLQINNLKSEDMATYFCARWEVYHGYVPYWGQGTTVTVSSGGGGSGGGGSGGGGSDIQLTQSHKFLSTSVGDRVSITCKASQDVYNAVAWYQQKPGQSPKLLIYSASSRYTGVPSRFTGSGSGPDFTFTISSVQAEDLAVYFCQQHFRTPFTFGSGTKLEIKALEGGSLAALTAHQACHLPLETFTRHRQPRGWEQLEQCGYPVQRLVALYLAARLSWNQVDQVIRNALASPGSGGDLGEAIREQPEQARLALTLAAAESERFVRQGTGNDEAGAANADEKLLSSIEQACDICRLKKLKCSKEKPKCAKCLKNNWECRYSPKTKRSPLTRAHLTEVESRLERLEQLFLLIFPREDLDMILKMDSLQDIKALLTGLFVQDNVNKDAVTDRLASVETDMPLTLRQHRISATSSSEESSNKGQRQLTVSSSDYKDEL
In the case of B1, the EC50 is reported as 20 nM.
